# Experimental data published in patent US20250303000A1, “COMPOSITIONS AND METHODS FOR INDUCIBLE ALTERNATIVE SPLICING REGULATION OF GENE EXPRESSION” (THE CHILDREN'S HOSPITAL OF PHILADELPHIA, priority 2022, published 2025).
# B1: miniXS3B2: miniX^on cassette with optimized Kozak/ATG and cryptic splicing sites eliminated; SEQ ID NO: 2 (nucleic acid)
# DNA: GTTTAAACAAGCTTGGCAATCCGGTACTGTTGGTAAATTTCTCTACAACTTAACCTTACAGAGAGCCACTGGCTTCAGCTTTGCCTTTCTTGGTAACTTTTCTGGTAAGTTCTCTCGTTACCATCTTTTGAAATTTTAAATGAATTAATACATATCTTGCTTAATCTCTTGTGCAAAAAATGTTTTCCATTTATGACAAAACAAAAATTGTGTGAAATTTCAAATATTGGATTAAAAAATACAAAGTTACGGAAAATGAGGTACTAATGTTTATAAAATAAAAACTTTTTCTTGCCATTTGCAGATTAACATTTTTGAGTCAATCCAAGTGCCACCATGGAAAAAGTTCATGATTGTGTAGAGTAAGACATAATTTTGTTGAAATTTAACTCTGAATACTTAATGTGGTACTGAATACTTAATGTGGTACTGAGAAGCAGCCTAACTGACCACACAACATTCCACGCCTGGCTAATTTTTGTATTTTTAATAAAAACGGGGTTTCACCATGGTGGCCGGGCTGGTTCTGGTTGTTTATGATCTTTATTTTTTGGTGATCTAGGAACCAAACAACAAAAAATTGTTGTTTCCCGTGGGTCGGATCC
# modifications: SF3B3.miniXS3B2 (m3B2; miniXS3B2; XS3B2)
# B2: miniXS3B: miniX^on cassette with optimized Kozak/ATG and cryptic splicing sites eliminated; SEQ ID NO: 1 (nucleic acid)
# DNA: TTTAAACAAGCTTGGCAATCCGGTACTGTTGGTAAATTTCTCTACAACTTAACCTTACAGAGAGCCACTGGCTTCAGCTTTGCCTTTCTTGGTAACTTTTCTGGTAAGTTCTCTCGTTACCATCTTTTGAAATTTTAAGTGAATTAATACATATCTTGCTTAATCTCTTGTGCAAAAAATGTTTTCCATTTATGACAAAACAAAAATTGTGTGAAATTTCAAATATTGGATTAGGAAATACAAAGTTACTGAAAGTGAGGTACTAATGTTTATAAAATAAAAACTTTTTCTTGCCATTTGCAGATTAACATTTTTGAGTCAATCCAAGTGCCACCATGGAAAAAGTTCATGATTGTGTAGAGTAAGACATAATTTTGTTGAAATTTAACTCTGAATACTTAATGTGGTACTGAATACTTAATGTGGTACTGAGAAGCAGCCTAACTGACCACACAACATTCCACGCCTGGCTAATTTTTGTATTTTTAATAAAAACGGGGTTTCACCATGGTGGCCGGGCTGGTTCTGGTTGTTTATGATCTTTATTTTTTGGTGATCTAGGAACCAAACAACAAAAAATTGTTGTTTCCCGTGGGTCGGATCC
# modifications: SF3B3.miniXS3B (m3B; miniXS3B; XS3B)
# Tests used:
# loxP-STOP cassette = assay: In vivo gene editing in liver of Ai14 mice (FACS, histology, genomic DNA PCR, Sanger sequencing); conditions: LMI070 50 mg kg-1, 7 days after LMI070
# Description: FIGS. 1A-1H. Generation of the miniXon cassette and assessment of miniXon control of SaCas9 for in vivo gene editing in liver. a, Cartoon depicting the AAV genome size with the SF3B3-Xon and SF3B3-miniXon cassettes. b, Luciferase induction in HEK293 cells transfected with SF3B3-miniXon-luciferase or SF3B3-Xon-luciferase in response to varying doses of LMI070. All samples are normalized to Renilla luciferase activity and are relative to DMSO treated cells. Data are the mean±s.e.m. of 8 biological replicates (***P<0.001 versus SF3B3.Xon, two-way ANOVA followed by Bonferroni's post hoc test). c, Splicing inclusion assays of the LMI070-induced exon at 100 nM LMI070. Pseudo exon inclusion in the Xon cassette was detected using primers flanking the pseudoexon (left) or by priming within the novel exon sequence (right; 4 technical replicates). d, Experimental design. […]
# The inventors have previously developed switch-on cassettes from LMI070-responsive exons, including from the minimal intronic intervening sequences necessary to recapitulate splicing of pseudoexons in SF3B3 (SF3B3.X^on; X^on). […] AAV8-miniX^on-SaCas9 plus single-guide RNAs targeting the loxP-STOP sequence in Ai14 mice were administered intravenously; after several weeks, LMI070 was administered and gene editing was assessed 7 days later (FIG. 1D). […]
# SaCas9 = SaCas9 protein levels by western blot in HEK293 cells treated with DMSO or LMI070; type: cell-based, human; conditions: for SaCas9 protein level, DMSO treated cells / SaCas9 protein induction after LMI070 treatment: 24 h; for SaCas9 protein levels relative to SF3B3.miniXon cassette / SaCas9 protein induction after LMI070 treatment: LMI070 (100 nM)
# Experimental: FIG. 3. Comparison of the miniX^on (miX^on), SF3B3.miniXS3B (m3B), and SF3B3.miniXS3B2 (m3B2) systems for HD editing control. (top) Cartoon depicting X^on splicing system for controlling Cas9 protein translation in response to LMI070. (middle, bottom) Bicistronic plasmids containing Xon.SaCas9 or miniXon.SaCas9 expression cassette together with a CMVeGFP expression cassettes were transfected in HEK293 cells and treated with DMSO (middle) or LMI070 (100 nM) (bottom) and Cas9 protein levels were determined by western blot 24 h later. eGFP proteins served as transfection control. Western blot is representative of 4 biological replicates.
# While gene editing approaches provide an enormous opportunity for altering or removing disease alleles, prolonged expression of the editing machinery from viral vectors could be problematic. The editing enzymes are foreign proteins and may induce immune responses, and prolonged gene expression would increase opportunities for off-target editing (Charlesworth et al., 2019; Vakulskas et al., 2018). To test the efficacy of SF3B3.miXS3B and SF3B3.miXS3B2 to control translation of CRISPR effector proteins, SF3B3.miXS3B and SF3B3.miXS3B2-SaCas9-CRISPR expression cassettes were generated and SaCas9 protein levels were quantified in response to DMSO or LMI070 treatment in HEK293 cells (FIG. 3A).
# luciferase = assay: Luciferase induction in HEK293 cells transfected with switch cassette-luciferase and treated with LMI070; type: cell-based, human; conditions: varying doses of LMI070, 24 h
# Description: FIGS. 1A-1H. Generation of the miniXon cassette and assessment of miniXon control of SaCas9 for in vivo gene editing in liver. a, Cartoon depicting the AAV genome size with the SF3B3-Xon and SF3B3-miniXon cassettes. b, Luciferase induction in HEK293 cells transfected with SF3B3-miniXon-luciferase or SF3B3-Xon-luciferase in response to varying doses of LMI070. All samples are normalized to Renilla luciferase activity and are relative to DMSO treated cells. Data are the mean±s.e.m. of 8 biological replicates (***P<0.001 versus SF3B3.Xon, two-way ANOVA followed by Bonferroni's post hoc test). c, Splicing inclusion assays of the LMI070-induced exon at 100 nM LMI070. Pseudo exon inclusion in the Xon cassette was detected using primers flanking the pseudoexon (left) or by priming within the novel exon sequence (right; 4 technical replicates). d, Experimental design. Mice were injected with AAV8-miniXon-SaCas9 plus AAV8-sgAi14-eGFP (1×10^12 viral genomes, 1:1 ratio) and 2 weeks later dosed with vehicle or LMI070 at 50 mg kg-1 to induce SaCas9 expression and editing of the loxP-STOP cassette (guides: sgA14_1: 5′-[…]-3′, sgAi14_2: 5′-[…]-3′). One week later, mice were euthanized, and livers processed to assess gene editing by genomic DNA PCR, histology and FACS of isolated hepatocytes. e, Representative FACS analysis of hepatocytes obtained from Ai14 mice after LMI070 or vehicle treatment. The gating/sorting strategy (above), and the percentage of tdTomato expressing cells for each condition (below) is shown (4 biological replicates). f, Representative photomicrographs of liver sections obtained from AAV injected Ai14 mice 1-week after LMI070 treatment. tdTomato expression (red) is evident in LMI070 treated mice (5 mice per group; scale bars, 100 μm). g, SaCas9 mediated editing of the loxP-STOP cassette in Ai14 mice as detected by PCR assay of liver genomic DNA (3 of 5 mice with guides plus LMI, 2 of 4 mice with guides plus vehicle, 1 of 2 untreated mice are shown). […] The sequence shown is represented in SEQ ID NO: 29.
# FIG. 2. Comparison of the miniX^on, SF3B3.miniXS3B (miniXS3B), and SF3B3.miniXS3B2 (miniXS3B2) systems for luciferase induction. To increase expression and induction of the miniXon cassette in response to LMI070, the kozak sequence within the LMI070 induced translation initiation exon was optimized, and splice sites located within the upstream and downstream intron eliminated. […]
# To test these switches, the cassettes were cloned upstream of luciferase or cDNA. HEK293 cells were transfected with the candidate cassettes, treated with LMI070, and luciferase activity expression determined 24 h later.
molecule,measurement,setting,value
"CC1(C)CC(Oc2ccc(-c3ccc(-c4cn[nH]c4)cc3O)nn2)CC(C)(C)N1 [LMI070, 5-(1H-Pyrazol-4-yl)-2-(6-((2,2,6,6-tetramethylpiperidin-4-yl)oxy)pyridazin-3-yl) phenol]","Editing of the loxP-STOP cassette (genomic DNA PCR, 355 bp product, Sanger sequencing)",loxP-STOP cassette; Ai14 mice liver,observed
same,tdTomato expression in hepatocytes / liver sections,"loxP-STOP cassette; Ai14 mice, AAV8-miniXon-SaCas9 plus AAV8-sgAi14-eGFP i.v.",evident
B1,"SaCas9 protein level, DMSO treated cells",SaCas9,almost undetectable
same,SaCas9 protein levels relative to SF3B3.miniXon cassette,SaCas9,higher
same,SaCas9 protein induction after LMI070 treatment,SaCas9,evident
same,Luciferase induction relative to X^on and miniX^on,luciferase,improved induction relative to X^on and miniX^on
same,Protein levels (luciferase) relative to SF3B3.miniX^on cassette,luciferase,higher protein levels relative to the previous SF3B3.miniX^on cassette
B2,"SaCas9 protein level, DMSO treated cells",SaCas9,almost undetectable
same,SaCas9 protein levels relative to SF3B3.miniXon cassette,SaCas9,higher
same,SaCas9 protein induction after LMI070 treatment,SaCas9,evident
same,Luciferase induction relative to X^on and miniX^on,luciferase,improved induction relative to X^on and miniX^on
same,Protein levels (luciferase) relative to SF3B3.miniX^on cassette,luciferase,higher protein levels relative to the previous SF3B3.miniX^on cassette
